This note sets out measurements from article PMC545800.

No end group written: not given here.

For test [1], the target named is T1, tetratricopeptide repeat (TPR) domain of S. cerevisiae PEX5 (Gal4pBD-TPR, plasmid pAH987) (S. cerevisiae).
T1 sequence (P35056 whole entry, looked up): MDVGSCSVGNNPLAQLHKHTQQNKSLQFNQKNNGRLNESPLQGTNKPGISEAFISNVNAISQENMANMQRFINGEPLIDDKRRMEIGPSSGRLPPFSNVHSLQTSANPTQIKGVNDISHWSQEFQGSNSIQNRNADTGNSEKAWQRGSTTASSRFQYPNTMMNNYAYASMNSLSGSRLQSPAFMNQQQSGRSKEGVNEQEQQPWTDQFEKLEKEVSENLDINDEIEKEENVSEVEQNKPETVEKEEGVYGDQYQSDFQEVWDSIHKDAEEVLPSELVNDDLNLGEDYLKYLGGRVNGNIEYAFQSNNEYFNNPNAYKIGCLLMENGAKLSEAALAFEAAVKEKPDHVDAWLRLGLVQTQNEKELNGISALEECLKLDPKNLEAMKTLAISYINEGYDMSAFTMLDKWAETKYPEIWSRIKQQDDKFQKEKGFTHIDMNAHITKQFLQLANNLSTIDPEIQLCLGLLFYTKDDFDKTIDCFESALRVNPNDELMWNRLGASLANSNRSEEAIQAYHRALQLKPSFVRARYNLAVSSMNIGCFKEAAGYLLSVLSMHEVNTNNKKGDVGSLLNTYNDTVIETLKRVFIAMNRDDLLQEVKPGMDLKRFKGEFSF
Put plainly: two-hybrid; yeast strain PCY3 co-transformed with Gal4pAD-16mer (pGAD.GH) and Gal4pBD-TPR of PEX5 (pAH987 yeast or hP87 human); quantitative beta-galactosidase activity, cells grown in SC-leu-trp at 30°C; lower limit of around 10 Miller Units per mg protein for a productive interaction.

Test [2] concerns the target tetratricopeptide repeat (TPR) domain of human PEX5 (Gal4pBD-TPR, plasmid hP87) (Homo sapiens). Described as above.

For “carboxy-terminal 16-mer of yeast mitochondrial ribosomal protein L2, or MRP7 (Gal4pAD-16mer) (peptide)”, in test [1], the beta-galactosidase activity (Units/mg protein) was 482.

For the molecule FDRDQNRVGLAEAARL (not fully specified (N-terminus)) [carboxy-terminal 16-mer of the precursor of lysosomal bovine cathepsin D (Gal4pAD-16mer)], the beta-galactosidase activity (Units/mg protein) in test [2] came to 310.

Molecule LLMEAEDYQATYQSNL [carboxy-terminal 16-mer of frog tyrosinase (Gal4pAD-16mer)] displayed a beta-galactosidase activity (Units/mg protein) in test [2] of 91.

FAVDQRKLEDLLAAKL [carboxy-terminal 16-mer of E. coli transaldolase A (Gal4pAD-16mer)]: the beta-galactosidase activity (Units/mg protein) worked out at 164 in test [1] and 566 in test [2].

As for DINNTIDAARRVFAKL (not fully specified (N-terminus)) [carboxy-terminal 16-mer of Escherichia coli glutamate-1-semialdehyde 2,1-aminomutase (Gal4pAD-16mer)], the values for the beta-galactosidase activity (Units/mg protein) in test [1] and in test [2] were 270 and 473, respectively.

RCKGTDVQAWIRGCRL [carboxy-terminal 16-mer of hen egg-white lysozyme (Gal4pAD-16mer)] yielded a beta-galactosidase activity (Units/mg protein) in test [2] of 73.

Consider EEVIRKIAEGLNKAKF (not fully specified (N-terminus)) [carboxy-terminal 16-mer of Archaeoglobus fulgidus 2-nitropropane dioxygenase (Gal4pAD-16mer)], for which the beta-galactosidase activity (Units/mg protein) in test [1] was determined as 206.

In turn, EKGIKYKFEVYEKSKL [carboxy-terminal 16 residues of the DHFR-SKL construct (Gal4pAD-16mer)] gave a beta-galactosidase activity (Units/mg protein) in test [1] of 195.

With PLKDKQLYANEGVSRL (not fully specified (N-terminus)) [carboxy-terminal 16-mer of Drosophila sevenless protein (Gal4pAD-16mer)], the beta-galactosidase activity (Units/mg protein) in test [2] was found to be 29.

Turning to HCKGKDLSKYLASCNL [carboxy-terminal 16-mer of dog lysozyme C from milk (Gal4pAD-16mer)], in test [2], the beta-galactosidase activity (Units/mg protein) is 25.

With LLMEKEDYHSLYQSHL [carboxy-terminal 16-mer of human tyrosinase (Gal4pAD-16mer)], the beta-galactosidase activity (Units/mg protein) in test [2] worked out at 242.

For GMGRREGHPDVGPARL [carboxy-terminal 16-mer of Methanopyrus kandleri riboflavin synthase (Gal4pAD-16mer)], the beta-galactosidase activity (Units/mg protein) in test [1] was 45; in test [2] it was 358.
